Assay results as given in patent US9540428B2, “Extracellular matrix heparin-binding domains” (EPFL-TTO, priority 2012, dated 2017).

Key:
Details in all cases: 50 nM cytokine coated
FGF-2 = FGF-2 (Homo sapiens, UniProt P09038); assay: ELISA binding to coated FGF-2
Protocol: (§1) ELISA plates were coated with cytokines or BSA and further incubated with TNC III1-5 to analyze binding of TNC III1-5 to a wide variety of cytokines. […] Results are depicted in FIG. 3. Method: 50 nM of cytokine was coated for (1 hr, 37° C.). After blocking with 2% BSA (1 hr, RT). 100 nM TNC III1-5 was applied in PBST (0.05% tween, 0.1% bovine serum albumin (BSA)) (1 hr, RT). TNC III1-5 was detected with horseradish peroxidase (HRP)-anti-HIS in PBST (1 hr, RT) and developed with 3,3′,5,5′-tetramethylbenzidine (TMB), a soluble colorimetric HRP […]. Addition of sulfuric acid stop solution changes the color to yellow, enabling accurate measurement of the intensity at 450 nm using a spectrophotometer or plate reader. […] Heparin (4 μM) was added to TNC III1-5 to test the effect of blocking the heparin binding site of TNC III1-5, which has been defined as domain TNC III5 (Weber, Zimmermann, et al., 1995).
(§2) ELISA plates were coated with cytokines or BSA and further incubated with Fg β15-66 to analyze binding of […] to a wide variety of cytokines. […] Results are depicted in FIG. 4. Method: The methods were analogous to those used in Example 3.

FGF-7 = molecular target: T1, FGF-7 (Homo sapiens, UniProt P21781); assay: ELISA binding to coated FGF-7
T1 sequence (P21781 32-194): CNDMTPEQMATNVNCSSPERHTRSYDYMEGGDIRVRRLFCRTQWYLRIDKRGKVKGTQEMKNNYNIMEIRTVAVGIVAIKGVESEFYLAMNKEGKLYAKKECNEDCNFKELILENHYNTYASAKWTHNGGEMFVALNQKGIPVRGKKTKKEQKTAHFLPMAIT
Protocol: as §1, §2

FGF-10 = molecular target: T2, FGF-10 (Homo sapiens, UniProt O15520); assay: ELISA binding to coated FGF-10
T2 sequence (O15520 38-208): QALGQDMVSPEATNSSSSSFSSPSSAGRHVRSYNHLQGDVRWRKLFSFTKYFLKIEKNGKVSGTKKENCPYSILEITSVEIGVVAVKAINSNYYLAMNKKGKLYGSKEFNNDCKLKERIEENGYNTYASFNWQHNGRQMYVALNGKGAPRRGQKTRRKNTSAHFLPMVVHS
Protocol: as §1, §2

TGF-β1 = TGF-β1 (Homo sapiens, UniProt P01137); assay: ELISA binding to coated TGF-β1
Protocol: as §1, §2

TGF-β2 = molecular target: T3, TGF-β2 (Homo sapiens, UniProt P61812); assay: ELISA binding to coated TGF-β2
T3 sequence (P61812 303-414 limits assumed): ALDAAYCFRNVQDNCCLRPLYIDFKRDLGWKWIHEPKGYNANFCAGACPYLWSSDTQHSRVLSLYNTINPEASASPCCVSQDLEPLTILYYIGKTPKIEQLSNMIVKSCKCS
Protocol: as §1, §2

NT-3 = molecular target: T4, NT-3 (Homo sapiens, UniProt P20783); assay: ELISA binding to coated NT-3
T4 sequence (P20783 139-257): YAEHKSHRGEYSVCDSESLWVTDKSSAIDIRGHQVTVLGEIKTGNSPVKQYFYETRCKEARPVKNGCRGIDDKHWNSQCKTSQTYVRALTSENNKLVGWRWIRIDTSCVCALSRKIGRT
Protocol: as §1, §2

BDNF = molecular target: T5, BDNF (Homo sapiens, UniProt P23560); assay: ELISA binding to coated BDNF
T5 sequence (P23560 129-247): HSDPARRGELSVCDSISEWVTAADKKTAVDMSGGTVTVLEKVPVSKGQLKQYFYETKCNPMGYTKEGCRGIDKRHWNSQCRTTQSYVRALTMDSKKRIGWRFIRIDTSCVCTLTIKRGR
Protocol: as §1, §2

PLGF-2 = molecular target: T6, PLGF-2 (Homo sapiens, UniProt P49763); assay: ELISA binding to coated PLGF-2
T6 sequence (P49763 19-170 isoform P49763-3 limits assumed): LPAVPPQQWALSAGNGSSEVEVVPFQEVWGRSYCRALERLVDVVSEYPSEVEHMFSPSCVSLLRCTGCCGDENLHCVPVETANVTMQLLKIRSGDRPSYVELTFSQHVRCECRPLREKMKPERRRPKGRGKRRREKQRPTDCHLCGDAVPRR
Protocol: as §1, §2

PLGF-1 = molecular target: T7, PLGF-1 (Homo sapiens, UniProt P49763); assay: ELISA binding to coated PLGF-1
T7 sequence (P49763 19-149 isoform P49763-2): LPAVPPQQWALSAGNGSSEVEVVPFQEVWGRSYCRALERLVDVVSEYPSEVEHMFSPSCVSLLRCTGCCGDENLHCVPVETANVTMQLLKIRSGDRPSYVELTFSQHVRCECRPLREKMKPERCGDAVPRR
Protocol: as §1, §2

BMP-2 = molecular target: T8, BMP-2 (Homo sapiens, UniProt P12643); assay: ELISA binding to coated BMP-2
T8 sequence (P12643 283-396): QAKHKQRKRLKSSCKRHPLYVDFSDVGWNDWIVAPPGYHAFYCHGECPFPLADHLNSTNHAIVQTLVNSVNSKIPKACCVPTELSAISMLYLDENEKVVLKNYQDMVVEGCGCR
Protocol: as §1, §2

PDGF-AA = PDGF-AA (Homo sapiens, UniProt P04085); assay: ELISA binding to coated PDGF-AA
Protocol: as §1

PDGF-AB = PDGF-AB (Homo sapiens, UniProt P01127+P04085); assay: ELISA binding to coated PDGF-AB
Protocol: as §1, §2

PDGF-BB = PDGF-BB (Homo sapiens, UniProt P01127); assay: ELISA binding to coated PDGF-BB
Protocol: as §1, §2

VEGF-A165 = molecular target: T9, VEGF-A165 (Homo sapiens, UniProt P15692); assay: ELISA binding to coated VEGF-A165
T9 sequence (P15692 1-191 isoform P15692-4): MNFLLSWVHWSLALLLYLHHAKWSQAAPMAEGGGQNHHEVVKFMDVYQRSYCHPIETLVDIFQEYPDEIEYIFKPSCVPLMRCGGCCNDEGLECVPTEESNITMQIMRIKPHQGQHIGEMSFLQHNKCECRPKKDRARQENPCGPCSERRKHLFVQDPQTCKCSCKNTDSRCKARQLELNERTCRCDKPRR
Protocol: as §1, §2

VEGF-B = molecular target: T10, VEGF-B (Homo sapiens, UniProt P49765); assay: ELISA binding to coated VEGF-B
T10 sequence (P49765 22-207): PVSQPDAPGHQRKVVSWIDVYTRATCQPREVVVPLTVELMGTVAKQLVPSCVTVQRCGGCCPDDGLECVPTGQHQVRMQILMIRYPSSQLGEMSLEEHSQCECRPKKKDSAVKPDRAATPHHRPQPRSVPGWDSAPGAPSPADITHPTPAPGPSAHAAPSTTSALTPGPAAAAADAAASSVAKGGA
Protocol: as §1, §2

IGF-BP3 = IGF-BP3 (Homo sapiens, UniProt P17936); assay: ELISA binding to coated IGF-BP3
Protocol: as §1, §2

IGF-BP5 = IGF-BP5 (Homo sapiens, UniProt P24593); assay: ELISA binding to coated IGF-BP5
Protocol: as §1, §2

Chain of IGF-BP5 (P24593 21-272, species assumed): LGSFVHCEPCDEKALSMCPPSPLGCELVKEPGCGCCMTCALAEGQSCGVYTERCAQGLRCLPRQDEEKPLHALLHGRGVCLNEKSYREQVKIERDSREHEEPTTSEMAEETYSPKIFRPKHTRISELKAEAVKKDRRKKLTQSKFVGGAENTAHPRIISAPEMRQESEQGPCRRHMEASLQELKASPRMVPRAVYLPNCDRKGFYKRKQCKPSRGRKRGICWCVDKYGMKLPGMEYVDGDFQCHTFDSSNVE
Chain of IGF-BP3 (P17936 28-291, species assumed): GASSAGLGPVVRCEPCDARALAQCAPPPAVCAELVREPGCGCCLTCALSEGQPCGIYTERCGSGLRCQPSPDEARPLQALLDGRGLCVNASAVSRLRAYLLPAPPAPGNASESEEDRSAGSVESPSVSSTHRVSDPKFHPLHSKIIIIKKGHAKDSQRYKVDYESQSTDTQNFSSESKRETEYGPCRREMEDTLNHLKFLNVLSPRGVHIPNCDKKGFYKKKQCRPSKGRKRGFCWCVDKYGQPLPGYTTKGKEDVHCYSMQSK
Chain of PDGF-AB (P01127 82-190 limits assumed, other chains not shown): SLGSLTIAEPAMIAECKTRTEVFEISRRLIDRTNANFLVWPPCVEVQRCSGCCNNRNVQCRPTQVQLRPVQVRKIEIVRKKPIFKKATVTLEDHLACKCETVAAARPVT
Chain of PDGF-BB (P01127 82-190 limits assumed): as the sequence (P01127 82-190 limits assumed, other chains not shown) above
Chain of TGF-β1 (P01137 279-390 limits assumed, species assumed): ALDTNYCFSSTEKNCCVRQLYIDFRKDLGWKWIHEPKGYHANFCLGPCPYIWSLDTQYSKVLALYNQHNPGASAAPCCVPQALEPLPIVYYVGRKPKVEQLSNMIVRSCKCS
Chain of FGF-2 (P09038 143-288, species assumed): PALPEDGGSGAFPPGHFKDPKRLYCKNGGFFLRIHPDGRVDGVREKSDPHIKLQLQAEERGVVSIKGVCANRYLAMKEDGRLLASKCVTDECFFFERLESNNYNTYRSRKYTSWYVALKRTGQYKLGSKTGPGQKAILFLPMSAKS

B1: TNC III1-5: recombinant tenascin C fibronectin type III repeats 1-5 (E622 to A1074) with transglutaminase substrate NQEQVSPL and 6×His tag, SEQ ID NO:1 (protein)
chain: METDTLLLWVLLLWVPGSTGDAAQPAIEGRNQEQVSPLGGSEVSPPKDLVVTEVTEETVNLAWDNEMRVTEYLVVYTPTHEGGLEMQFRVPGDQTSTIIQELEPGVEYFIRVFAILENKKSIPVSARVATYLPAPEGLKFKSIKETSVEVEWDPLDIAFETWEIIFRNMNKEDEGEITKSLRRPETSYRQTGLAPGQEYEISLHIVKNNTRGPGLKRVTTTRLDAPSQIEVKDVTDTTALITWFKPLAEIDGIELTYGIKDVPGDRTTIDLTEDENQYSIGNLKPDTEYEVSLISRRGDMSSNPAKETFTTGLDAPRNLRRVSQTDNSITLEWRNGKAAIDSYRIKYAPISGGDHAEVDVPKSQQATTKTTLTGLRPGTEYGIGVSAVKEDKESNPATINAATELDTPKDLQVSETAETSLTLLWKTPLAKFDRYRLNYSLPTGQWVGVQLPRNTTSYVLRGLEPGQEYNVLLTAEKGRHKSKPARVKASTEQAGGGSHHHHHH
modifications: Tenascin III signal sequence with polyhistidine tag
In the case of B1, the “binding to FGF-2 (ELISA, signal above BSA background)” value (FGF-2) is reported as “positive binding”, the “binding to FGF-7 (ELISA, signal above BSA background)” value (FGF-7) is reported as “positive binding” and the “binding to FGF-10 (ELISA, signal above BSA background)” value (FGF-10) is reported as “positive binding”. The “binding to TGF-β1 (ELISA, signal above BSA background)” value (TGF-β1) was “positive binding”, the “binding to TGF-β2 (ELISA, signal above BSA background)” value (TGF-β2) was “positive binding” and the “binding to NT-3 (ELISA, signal above BSA background)” value (NT-3) was “positive binding”. For the same molecule, the “binding to BDNF (ELISA, signal above BSA background)” value (BDNF) was “positive binding”, the “binding to PLGF-2 (ELISA, signal above BSA background)” value (PLGF-2) was “positive binding” and the “binding to PLGF-1 (ELISA, signal above BSA background)” value (PLGF-1) was “positive binding”. The “binding to BMP-2 (ELISA, signal above BSA background)” value (BMP-2) was “positive binding”, the “binding to PDGF-AA (ELISA, signal above BSA background)” value (PDGF-AA) was “positive binding” and the “binding to PDGF-AB (ELISA, signal above BSA background)” value (PDGF-AB) was “positive binding”. For the same molecule, the “binding to PDGF-BB (ELISA, signal above BSA background)” value (PDGF-BB) was “positive binding”, the “binding to VEGF-A165 (ELISA, signal above BSA background)” value (VEGF-A165) was “positive binding” and the “binding to VEGF-B (ELISA, signal above BSA background)” value (VEGF-B) was “positive binding”. The “binding to IGF-BP3 (ELISA, signal above BSA background)” value (IGF-BP3) was “positive binding” and the “binding to IGF-BP5 (ELISA, signal above BSA background)” value (IGF-BP5) was “positive binding”.

B2: Fg β15-66: heparin-binding domain of human fibrinogen β chain aa15-66 (SEQ ID NO:8); construct with TG substrate and His tag, SEQ ID NO:2 (protein)
chain: GSNQEQVSPLGHRPLDKKREEAPSLRPAPPPISGGGYRARPAKAAATQKKVERKAPDAGGCGHHHHHH
modifications: GS linker, transglutaminase substrate, the Fg beta15-66, with a Histidine tag
B2 was tested, and the “binding to FGF-2 (ELISA, signal above BSA background)” value (FGF-2) was “positive binding”, the “binding to FGF-7 (ELISA, signal above BSA background)” value (FGF-7) was “positive binding” and the “binding to FGF-10 (ELISA, signal above BSA background)” value (FGF-10) was “positive binding”. For the same molecule, the “binding to TGF-β1 (ELISA, signal above BSA background)” value (TGF-β1) was “positive binding”, the “binding to TGF-β2 (ELISA, signal above BSA background)” value (TGF-β2) was “positive binding” and the “binding to NT-3 (ELISA, signal above BSA background)” value (NT-3) was “positive binding”. The “binding to BDNF (ELISA, signal above BSA background)” value (BDNF) was “positive binding”, the “binding to PLGF-2 (ELISA, signal above BSA background)” value (PLGF-2) was “positive binding” and the “binding to PLGF-1 (ELISA, signal above BSA background)” value (PLGF-1) was “did not bind”. The “binding to BMP-2 (ELISA, signal above BSA background)” value (BMP-2) was “positive binding”, the “binding to PDGF-AB (ELISA, signal above BSA background)” value (PDGF-AB) was “positive binding” and the “binding to PDGF-BB (ELISA, signal above BSA background)” value (PDGF-BB) was “positive binding”. For the same molecule, the “binding to VEGF-A165 (ELISA, signal above BSA background)” value (VEGF-A165) was “positive binding”, the “binding to VEGF-B (ELISA, signal above BSA background)” value (VEGF-B) was “positive binding” and the “binding to IGF-BP3 (ELISA, signal above BSA background)” value (IGF-BP3) was “positive binding”. For the same molecule, the “binding to IGF-BP5 (ELISA, signal above BSA background)” value (IGF-BP5) was “positive binding”.
